For assay [1], the target named is T1, RLuc8-L5-ALFA-tag.
T1 chain: SRLEEELRRRLTE
Briefly: BRET donor saturation assay. The settings on record: chain shown with the change, HEK293T cells, 37°C; for response: Acceptor/Donor ratio 20, parent: est. 26, read off a plot; for other: BRET50: parent: 1.4 ± 0.09; for other: BRETmax: parent: 28.4 ± 0.37.

The target in assay [2] is T2, ALFA tag-human Fc.
T2 chain: SRLEEELRRRLTE
Briefly: SPR. The settings on record: chain shown with the change; for Kd: room temperature, parent: 5.0 ± 0.07 pM; for response (Response Unit): sdAb at 50 nM, parent: est. 61, read off a plot.

The target of assay [3] is T3, ALFA tag-human Fc.
T3 chain: SRLEEELRRRLTE
Briefly: SPR. For orientation: In SPR one partner is held on a chip, and binding of the other changes the refractive index at the surface.

The target in assay [4] is T3, ALFA tag-human Fc. Briefly: SPR.

Numbering of substitutions follows the chain as printed. In names and notes the source's numbering stands. Where two headings read alike, the source gives them in different places.

B1: GFP2-L5-sdAbALFA WT S57A; E58S; R59G; R65D; D112V (protein)
chain: EVQLQESGGGLVQPGGSLRLSCTASGVTISALNAMAMGWYRQAPGERRVMVAAVASGGNAMYDESVQGRFTVTRDFTNKMVSLQMDNLKPEDTAVYYCHVLEDRVDSFHVYWGQGTQVTVSS
For B1, in assay [1], the response turned out to be 2 BRET ratio, the other: BRET50 was 12.4 and the other: BRETmax was found to be 3.3.

B2: GFP2-L5-sdAbALFA WT S57A; E58S; R59G (protein)
chain: B1 chain with D63R, V110D
For the molecule B2, in assay [1], the other: BRET50 amounted to 5.2 and the other: BRETmax amounted to 26.4.

B3: sdAb ALFA WT-TEV-His S57A; E58S; R59G; R65D (protein)
chain: B1 chain with V110D
Usually Kd stands for the equilibrium constant for the complex coming apart. On to B3, for which, in assay [2], the Kd was 1130 nM and the response (Response Unit) came to 3.8.

B4: GFP2-L5-sdAbALFA WT S57A; E58S; R59G; R65D (protein)
chain: B1 chain with V110D
For the molecule B4, in assay [1], the response was found to be 9.5 BRET ratio, the other: BRET50 is 9.3 and the other: BRETmax turned out to be 14.

B5: sdAb ALFA WT-TEV-His S57A; E58S; R59G; R65D; D112V (protein)
chain: B1 chain
As to B5, in assay [2], the response (Response Unit) came out at 0.

B6: sdAb ALFA WT-TEV-His E58S (protein)
chain: B1 chain with A55S, G57R, D63R, V110D
Turning to B6, the Kd in assay [2] came out at 0.8 nM.

B7: sdAb ALFA E-TEV-His (VHH)
VHH: B1 chain with A55S, G57R, D63R, V110D
As usually defined, the koff is the first-order rate constant of dissociation. A low value points to a long-lived complex. In assay [3], B7 registered a koff of 0.0039 s⁻¹.

B8: GFP2-L5-sdAbALFA WT S57A; E58S (protein)
chain: B1 chain with G57R, D63R, V110D
For B8, in assay [1], the other: BRET50 turned out to be 6.2 and the other: BRETmax is 26.7.

B9: sdAb ALFA WT-TEV-His S57A; E58S (protein)
chain: B1 chain with G57R, D63R, V110D
In the case of B9, the Kd in assay [2] is 1.7 nM.

B10: GFP2-L5-sdAbALFA WT E58S (protein)
chain: B1 chain with A55S, G57R, D63R, V110D
B10: in assay [1], the other: BRET50 came to 2.2 and the other: BRETmax came out at 28.1.

B11: sdAb ALFA SERR-TEV-His (VHH)
VHH: B1 chain with V110D
In turn, B11 had a koff in assay [3] of 0.026 s⁻¹.

B12: sdAb ALFA SER-TEV-His (VHH)
VHH: B1 chain with D63R, V110D
With B12, the koff in assay [3] turned out to be 0.011 s⁻¹.

B13: sdAb ALFA WT-TEV-His S57A; E58S; R59G (protein)
chain: B1 chain with D63R, V110D
Take B13: in assay [2], the dissociation constant Kd stood at 2.4 nM and the response (Response Unit) was determined as 57.

B14: sdAb ALFA WT-TEV-His (VHH)
VHH: B1 chain with A55S, S56E, G57R, D63R, V110D
In turn, B14 yielded a Kd in assay [4] of 0.005 nM. This molecule displayed a koff in assay [3] of 2.7e-05 s⁻¹.

B15: sdAb ALFA SE-TEV-His (VHH)
VHH: B1 chain with G57R, D63R, V110D
Take B15: in assay [3], the off-rate (koff) came out at 0.0073 s⁻¹.
